Test results as given in patent US6485936 (HSP RESEARCH INSTITUTE, dated 2002).

Experiments:
GST-HSF2N96C328 [1] = target: T1, GST-HSF2N96C328 (human, UniProt Q03933 96-328); assay: GST pull-down, 35S-labeled in vitro translated deletion mutant
T1 construct: Expressed in E. coli and immobilized on glutathione-Sepharose; also called HSF2N96C328 (GST fusion); not shown: glutathione S-transferase (GST) encoded by the pGEX-5X-1 vector (Pharmacia)
T1 sequence (looked up): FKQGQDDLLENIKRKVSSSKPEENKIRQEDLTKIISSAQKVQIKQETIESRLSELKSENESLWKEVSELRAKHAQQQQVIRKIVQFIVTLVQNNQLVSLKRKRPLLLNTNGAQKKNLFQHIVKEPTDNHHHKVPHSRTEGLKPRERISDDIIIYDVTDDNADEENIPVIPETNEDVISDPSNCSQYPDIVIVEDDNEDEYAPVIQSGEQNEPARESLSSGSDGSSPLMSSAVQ

GST-HSF2N96C328 [2] = target: T1, GST-HSF2N96C328; assay: GST pull-down with GST-HSF2N96C328; 35S-labeled in vitro translated protein

B1: BP-C73 (deletion mutant of HSF2BP), in vitro translated, 35S-methionine-labeled (other)
chain: MGEAGAAEEACRHMGTKEEFVKVRKKDLERLTTEVMQIRDFLPRILNGEVLESFQKLKIVEKNLERKEQELEQ
modifications: 35S-methionine label
B1: no binding (GST-HSF2N96C328 [1]).

B2: BP-C150 (deletion mutant of HSF2BP), in vitro translated, 35S-methionine-labeled (other)
chain: MGEAGAAEEACRHMGTKEEFVKVRKKDLERLTTEVMQIRDFLPRILNGEVLESFQKLKIVEKNLERKEQELEQLKMDCEHFKARLETVQADNIREKKEKLALRQQLNEAKQQLLQQAEYCTEMGAAACTLLWGVSSSEEVVKAILGGDKA
modifications: 35S-methionine label
notes: Vector pcDNA 3.1 His; tag residues are not described
With B2 the “proportion bound (% of the level of input)” value (GST-HSF2N96C328 [2]) was 22.3 % of the level of input.

B3: BP-C115 (deletion mutant of HSF2BP), in vitro translated, 35S-methionine-labeled (other)
chain: MGEAGAAEEACRHMGTKEEFVKVRKKDLERLTTEVMQIRDFLPRILNGEVLESFQKLKIVEKNLERKEQELEQLKMDCEHFKARLETVQADNIREKKEKLALRQQLNEAKQQLLQ
modifications: 35S-methionine label
With B3 the “proportion bound (% of the level of input)” value (GST-HSF2N96C328 [2]) was 5.7 % of the level of input.

B4: HSF2 binding protein (HSF2BP), in vitro translated, 35S-methionine-labeled (other)
chain: MGEAGAAEEACRHMGTKEEFVKVRKKDLERLTTEVMQIRDFLPRILNGEVLESFQKLKIVEKNLERKEQELEQLKMDCEHFKARLETVQADNIREKKEKLALRQQLNEAKQQLLQQAEYCTEMGAAACTLLWGVSSSEEVVKAILGGDKALKFFSITGQTMESFVKSLDGDVQELDSDESQFVFALAGIVTNVAAIACGREFLVNSSRVLLDTILQLLGDLKPGQCTKLKVLMLMSLYNVSINLKGLKYISESPGFIPLLWWLLSDPDAEVCLHVLRLVQSVVLEPEVFSKSASEFRSSLPLQRILAMSKSRNPRLQTAAQELLEDLRTLEHNV
modifications: 35S-methionine label
notes: In vitro translated (TNT kit) from HSF2BP cDNA in pcDNA 3.1 His A, B or C; also called human HSF2BP; intact HSF2BP
In the case of B4, the “proportion bound (% of the level of input)” value (GST-HSF2N96C328 [2]) is reported as 12.9 % of the level of input.

B5: BP-N115 (deletion mutant of HSF2BP), in vitro translated, 35S-methionine-labeled (other)
chain: QQAEYCTEMGAAACTLLWGVSSSEEVVKAILGGDKALKFFSITGQTMESFVKSLDGDVQELDSDESQFVFALAGIVTNVAAIACGREFLVNSSRVLLDTILQLLGDLKPGQCTKLKVLMLMSLYNVSINLKGLKYISESPGFIPLLWWLLSDPDAEVCLHVLRLVQSVVLEPEVFSKSASEFRSSLPLQRILAMSKSRNPRLQTAAQELLEDLRTLEHNV
modifications: 35S-methionine label
B5: no binding (GST-HSF2N96C328 [1]).
